Article PMC11947285 (Nature Communications, 2025)

Target: the molecule itself
Assay: cryo-EM structure

B1: human XPR1 (Xenotropic and polytropic retrovirus receptor 1) (natural protein, UniProt Q9UBH6-1 1-696, looked up)
chain: MKFAEHLSAHITPEWRKQYIQYEAFKDMLYSAQDQAPSVEVTDEDTVKRYFAKFEEKFFQTCEKELAKINTFYSEKLAEAQRRFATLQNELQSSLDAQKESTGVTTLRQRRKPVFHLSHEERVQHRNIKDLKLAFSEFYLSLILLQNYQNLNFTGFRKILKKHDKILETSRGADWRVAHVEVAPFYTCKKINQLISETEAVVTNELEDGDRQKAMKRLRVPPLGAAQPAPAWTTFRVGLFCGIFIVLNITLVLAAVFKLETDRSIWPLIRIYRGGFLLIEFLFLLGINTYGWRQAGVNHVLIFELNPRSNLSHQHLFEIAGFLGILWCLSLLACFFAPISVIPTYVYPLALYGFMVFFLINPTKTFYYKSRFWLLKLLFRVFTAPFHKVGFADFWLADQLNSLSVILMDLEYMICFYSLELKWDESKGLLPNNSEESGICHKYTYGVRAIVQCIPAWLRFIQCLRRYRDTKRAFPHLVNAGKYSTTFFMVTFAALYSTHKERGHSDTMVFFYLWIVFYIISSCYTLIWDLKMDWGLFDKNAGENTFLREEIVYPQKAYYYCAIIEDVILRFAWTIQISITSTTLLPHSGDIIATVFAPLEVFRRFVWNFFRLENEHLNNCGEFRAVRDISVAPLNADDQTLLEQMMDQDDGVRNRQKNRSWKYNQSISLRRPRLASQSKARDTKVLIEDTDDEANT
stoichiometry N: 2
